For assay [1], the target named is tubulin (α-tubulin) (mouse (endogenous in striatum)) (UniProt P68369). Description: co-IP.
Assay [2] deals with GABAA receptor (GABAAR β2/3 subunits) (mouse (endogenous in striatum)) (UniProt P63137). Nature of the assay: co-IP.

Results on 4 molecules are retold here after article PMC3323696.

Chain of UniProt P63137 (P63137 whole entry, looked up): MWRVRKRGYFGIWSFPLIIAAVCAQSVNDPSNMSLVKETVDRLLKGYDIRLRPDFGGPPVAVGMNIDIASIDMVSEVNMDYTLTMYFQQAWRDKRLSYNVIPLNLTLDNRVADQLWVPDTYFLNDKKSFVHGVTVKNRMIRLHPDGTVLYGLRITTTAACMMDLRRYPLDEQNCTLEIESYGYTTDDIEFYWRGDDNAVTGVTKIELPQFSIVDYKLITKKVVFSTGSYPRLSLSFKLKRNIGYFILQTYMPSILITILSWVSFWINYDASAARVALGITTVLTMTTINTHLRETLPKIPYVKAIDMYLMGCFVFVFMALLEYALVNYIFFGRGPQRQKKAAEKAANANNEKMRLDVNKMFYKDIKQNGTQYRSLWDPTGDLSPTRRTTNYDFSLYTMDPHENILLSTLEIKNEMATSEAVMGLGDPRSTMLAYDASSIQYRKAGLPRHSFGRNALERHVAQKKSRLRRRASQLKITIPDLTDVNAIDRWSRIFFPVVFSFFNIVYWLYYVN

Regarding “GABAA receptor (GABAAR β2/3 subunits) (from UniProt P63137 26-512; P63080 26-473)”, the co-precipitated amount in HD (N171-82Q) mice, % of WT mice in assay [1] was 65.3 % of WT.
Regarding “KIF5 heavy chain (from UniProt Q61768 1-963) (natural protein)”, the values for the co-precipitated amount in HD (N171-82Q) mice, % of WT mice in assay [2] and in assay [1] were 41.5 % of WT and 35.5 % of WT, respectively.
For the molecule “tubulin (α-tubulin) (from UniProt P68369 1-451) (natural protein)”, the co-precipitated amount in HD (N171-82Q) mice, % of WT mice in assay [2] is 67.4 % of WT.

B1: huntingtin associated protein 1 (HAP1) (natural protein)
chain: MRPKEQVQSGAGDGTGSGDPAAGTPTTQPAVGPAPEPSAEPKPAPAQGTGSGQKSGSRTKTGSFCRSMIIGDSDAPWTRYVFQGPYGPRATGLGTGKAEGIWKTPAAYIGRRPGVSGPERAAFIRELQEALCPNPPPTKKITEDDVKVMLYLLEEKERDLNTAARIGQSLVKQNSVLMEENNKLETMLGSAREEILHLRKQVNLRDDLLQLYSDSDDDDDEEDEEDEEEGEEEEREGQRDQDQQHDHPYGAPKPHPKAETAHRCPQLETLQQKLRLLEEENDHLREEASHLDNLEDEEQMLILECVEQFSEASQQMAELSEVLVLRLEGYERQQKEITQLQAEITKLQQRCQSYGAQTEKLQQMLASEKGIHSESLRAGSYMQDYGSRPRDRQEDGKSHRQRSSMPAGSVTHYGYSVPLDALPSFPETLAEELRTSLRKFITDPAYFMERRDTHCREGRKKEQRAMPPPPAQDLKPPEDFEAPEELVPEEELGAIEEVGTAEDGQAEENEQASEETEAWEEVEPEVDETTRMNVVVSALEASGLGPSHLDMKYVLQQLSNWQDAHSKRQQKQKVVPKDSPTPQQQTNMGGGILEQQPRVPTQDSQRLEEDRATHSPSAREEEGPSGAT
B1: the co-precipitated amount in HD (N171-82Q) mice, % of WT mice in assay [2] was 42.9 % of WT.
